Assay results published in US20060160174A1 (published 2006).

What was measured:
[1] = biological target: T1, soluble p97 (amino acids 20-710 of human p97 precursor), 6x his tag (human, UniProt P08582 20-710); assay: SPR, Biacore 2000, 25 C; p97 immobilised on CM5 chip, scFv fusion injected; 1:1 model
T1 construct: range 20-710; also called p97 melanotransferrin; recombinant p97; not shown: 6x his tag from vector pSecTag2
T1 sequence: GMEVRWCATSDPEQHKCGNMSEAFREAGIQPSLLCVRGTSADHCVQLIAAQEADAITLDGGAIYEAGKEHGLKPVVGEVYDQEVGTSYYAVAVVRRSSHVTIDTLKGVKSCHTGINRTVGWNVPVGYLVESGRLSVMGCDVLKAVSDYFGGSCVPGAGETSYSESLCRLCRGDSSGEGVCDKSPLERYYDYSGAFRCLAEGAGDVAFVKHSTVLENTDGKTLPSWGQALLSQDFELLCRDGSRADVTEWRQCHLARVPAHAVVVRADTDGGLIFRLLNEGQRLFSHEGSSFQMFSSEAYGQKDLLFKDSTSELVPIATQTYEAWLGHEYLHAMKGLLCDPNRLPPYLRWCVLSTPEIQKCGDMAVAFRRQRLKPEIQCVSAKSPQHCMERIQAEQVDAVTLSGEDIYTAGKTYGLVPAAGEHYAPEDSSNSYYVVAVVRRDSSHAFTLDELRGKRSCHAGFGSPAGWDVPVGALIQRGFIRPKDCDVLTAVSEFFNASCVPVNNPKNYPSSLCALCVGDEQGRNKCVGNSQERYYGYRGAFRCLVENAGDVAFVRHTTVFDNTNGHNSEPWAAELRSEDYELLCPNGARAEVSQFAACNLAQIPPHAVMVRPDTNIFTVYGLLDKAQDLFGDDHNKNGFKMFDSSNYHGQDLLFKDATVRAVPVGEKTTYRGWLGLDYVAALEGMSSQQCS

[2] = biological target: T1, soluble p97 (amino acids 20-710 of …); assay: solid-phase binding assay on wells coated with soluble p97; crude refold normalised on beta-lactamase activity; nitrocefin read-out, OD 490 nm [a]
[3] = biological target: T1, soluble p97 (amino acids 20-710 of …); assay: SEC binding assay with purified p97 (discussion of the example)

B1: parental L49-sFv-bL fusion protein FP95 (scFv)
scFv: MEVQLQESGPSLVKPSQTLSLTCSVTGDSITSGYWNWIRKFPGNKLEYMGYISDSGITYYNPSLKSRISITRDTSKNQYYLQLNFVTAEDTATYNCARRTLATYYAMDYWGQGTSVTVSSGSTSGSGKPGSGEGSTKGDFVMTQTPLSLPVSLGDQASISCRASQSLVHSNGNTYLHWYLQKPGQSPKLLIYRVSNRFSGVPDRFSGSGSGTDFTLKISRVEAEDLGVYFCSQSTHVPPTFGGGTKLEIKRTPVSEKQLAEVVANTITPLMKAQSVPGMAVAVIYQGKPHYYTFGKADIAANKPVTPQTLFELGSISKTFTGVLGGDAIARGEISLDDAVTRYWPQLTGKQWQGIRMLDLATYTAGGLPLQVPDEVTDNASLLRFYQNWQPQWKPGTTRLYANASIGLFGALAVKPSGMPYEQAMTTRVLKPLKLDHTWINVPKAEEAHYAWGYRDGKAVRVSPGMLDAQAYGVKTNVQDMANWVMANMAPENVADASLKQGIALAQSRYWRIGSMYQGLGWEMLNWPVEANTVVETSFGNVALAPLPVAEVNPPAPPVKASWVHKTGSTGGFGSYVAFIPEKQIGIVMLANTSYPNPARVEAAYHILEALQ
notes: also called L49-scFv-bL; parental molecule
- Kd [1]: 2.31 nM
- koff [1]: 0.0007 s⁻¹
- kon [1]: 304000 M⁻¹ s⁻¹

B2: 935 (scFv)
chain: MEVQLQESGPSLVKPSQTLSLTCSVTGDSITSGYWNWIRKFPGNKLEWMGYISDSGITYYNPSLKSRISITRDTSKNQYYLQLNFVTAEDTATYNCARRTLATYYAMDYWGQGTSVTVSSGSTSGSGKPGSGEGSTKGDFVMTQTPLSLPVSLGDQASISCRASQSLVHSNGNTYLHWYLQKPGQSPKLLIYRVSNRFSGVPDRFSGSGSGTDFTLKISRVEAEDLGVYFCSQSTHVPPTFGGGTKLEIKRTPVSEKQLAEVVANTITPLMKAQSVPGMAVAVIYQGKPHYYTFGKADIAANKPVTPQTLFELGSISKTFTGVLGGDAIARGEISLDDAVTRYWPQLTGKQWQGIRMLDLATYTAGGLPLQVPDEVTDNASLLRFYQNWQPQWKPGTTRLYANASIGLFGALAVKPSGMPYEQAMTTRVLKPLKLDHTWINVPKAEEAHYAWGYRDGKAVRVSPGMLDAQAYGVKTNVQDMANWVMANMAPENVADASLKQGIALAQSRYWRIGSMYQGLGWEMLNWPVEANTVVETSFGNVALAPLPVAEVNPPAPPVKASWVHKTGSTGGFGSYVAFIPEKQIGIVMLANTSYPNPARVEAAYHILEALQ
notes: also called FP935; L49-sFv-bL mutant FP935 (Y H47 W)
- binding result [2]: binds

B3: 940 (scFv)
chain: MEVQLQESGPSLVKPSQTLSLTCSVTGDSITSGYWNWIRKFPGNKLEYMGYISDSGITYYNPSLKSRISITRDTSKNQAYLQLNFVTAEDTATYNCARRTLATYYAMDYWGQGTSVTVSSGSTSGSGKPGSGEGSTKGDFVMTQTPLSLPVSLGDQASISCRASQSLVHSNGNTYLHWYLQKPGQSPKLLIYRVSNRFSGVPDRFSGSGSGTDFTLKISRVEAEDLGVYFCSQSTHVPPTFGGGTKLEIKRTPVSEKQLAEVVANTITPLMKAQSVPGMAVAVIYQGKPHYYTFGKADIAANKPVTPQTLFELGSISKTFTGVLGGDAIARGEISLDDAVTRYWPQLTGKQWQGIRMLDLATYTAGGLPLQVPDEVTDNASLLRFYQNWQPQWKPGTTRLYANASIGLFGALAVKPSGMPYEQAMTTRVLKPLKLDHTWINVPKAEEAHYAWGYRDGKAVRVSPGMLDAQAYGVKTNVQDMANWVMANMAPENVADASLKQGIALAQSRYWRIGSMYQGLGWEMLNWPVEANTVVETSFGNVALAPLPVAEVNPPAPPVKASWVHKTGSTGGFGSYVAFIPEKQIGIVMLANTSYPNPARVEAAYHILEALQ
notes: also called FP940; L49-sFv-bL mutant FP940 (Y H78 A)
- binding result [2]: binds

B4: L49-sFv-bL double mutant FP960 (F H82B S, N H91 Y) (scFv)
scFv: MEVQLQESGPSLVKPSQTLSLTCSVTGDSITSGYWNWIRKFPGNKLEYMGYISDSGITYYNPSLKSRISITRDTSKNQYYLQLNSVTAEDTATYYCARRTLATYYAMDYWGQGTSVTVSSGSTSGSGKPGSGEGSTKGDFVMTQTPLSLPVSLGDQASISCRASQSLVHSNGNTYLHWYLQKPGQSPKLLIYRVSNRFSGVPDRFSGSGSGTDFTLKISRVEAEDLGVYFCSQSTHVPPTFGGGTKLEIKRTPVSEKQLAEVVANTITPLMKAQSVPGMAVAVIYQGKPHYYTFGKADIAANKPVTPQTLFELGSISKTFTGVLGGDAIARGEISLDDAVTRYWPQLTGKQWQGIRMLDLATYTAGGLPLQVPDEVTDNASLLRFYQNWQPQWKPGTTRLYANASIGLFGALAVKPSGMPYEQAMTTRVLKPLKLDHTWINVPKAEEAHYAWGYRDGKAVRVSPGMLDAQAYGVKTNVQDMANWVMANMAPENVADASLKQGIALAQSRYWRIGSMYQGLGWEMLNWPVEANTVVETSFGNVALAPLPVAEVNPPAPPVKASWVHKTGSTGGFGSYVAFIPEKQIGIVMLANTSYPNPARVEAAYHILEALQ
- percent of purified protein bound to antigen [3]: 100%
- Kd [1]: 1.75 nM
- koff [1]: 0.000638 s⁻¹
- kon [1]: 364000 M⁻¹ s⁻¹

B5: L49-sFv-bL double mutant FP965 (K H39 Q, N H91 Y) (scFv)
scFv: MEVQLQESGPSLVKPSQTLSLTCSVTGDSITSGYWNWIRQFPGNKLEYMGYISDSGITYYNPSLKSRISITRDTSKNQYYLQLNFVTAEDTATYYCARRTLATYYAMDYWGQGTSVTVSSGSTSGSGKPGSGEGSTKGDFVMTQTPLSLPVSLGDQASISCRASQSLVHSNGNTYLHWYLQKPGQSPKLLIYRVSNRFSGVPDRFSGSGSGTDFTLKISRVEAEDLGVYFCSQSTHVPPTFGGGTKLEIKRTPVSEKQLAEVVANTITPLMKAQSVPGMAVAVIYQGKPHYYTFGKADIAANKPVTPQTLFELGSISKTFTGVLGGDAIARGEISLDDAVTRYWPQLTGKQWQGIRMLDLATYTAGGLPLQVPDEVTDNASLLRFYQNWQPQWKPGTTRLYANASIGLFGALAVKPSGMPYEQAMTTRVLKPLKLDHTWINVPKAEEAHYAWGYRDGKAVRVSPGMLDAQAYGVKTNVQDMANWVMANMAPENVADASLKQGIALAQSRYWRIGSMYQGLGWEMLNWPVEANTVVETSFGNVALAPLPVAEVNPPAPPVKASWVHKTGSTGGFGSYVAFIPEKQIGIVMLANTSYPNPARVEAAYHILEALQ
- percent of purified protein bound to antigen [3]: 100%
- Kd [1]: 1.91 nM
- koff [1]: 0.000765 s⁻¹
- kon [1]: 400000 M⁻¹ s⁻¹

B6: L49-sFv-bL mutant FP930 (K H39 Q) (scFv)
scFv: MEVQLQESGPSLVKPSQTLSLTCSVTGDSITSGYWNWIRQFPGNKLEYMGYISDSGITYYNPSLKSRISITRDTSKNQYYLQLNFVTAEDTATYNCARRTLATYYAMDYWGQGTSVTVSSGSTSGSGKPGSGEGSTKGDFVMTQTPLSLPVSLGDQASISCRASQSLVHSNGNTYLHWYLQKPGQSPKLLIYRVSNRFSGVPDRFSGSGSGTDFTLKISRVEAEDLGVYFCSQSTHVPPTFGGGTKLEIKRTPVSEKQLAEVVANTITPLMKAQSVPGMAVAVIYQGKPHYYTFGKADIAANKPVTPQTLFELGSISKTFTGVLGGDAIARGEISLDDAVTRYWPQLTGKQWQGIRMLDLATYTAGGLPLQVPDEVTDNASLLRFYQNWQPQWKPGTTRLYANASIGLFGALAVKPSGMPYEQAMTTRVLKPLKLDHTWINVPKAEEAHYAWGYRDGKAVRVSPGMLDAQAYGVKTNVQDMANWVMANMAPENVADASLKQGIALAQSRYWRIGSMYQGLGWEMLNWPVEANTVVETSFGNVALAPLPVAEVNPPAPPVKASWVHKTGSTGGFGSYVAFIPEKQIGIVMLANTSYPNPARVEAAYHILEALQ
- binding result [2]: binds

B7: L49-sFv-bL mutant FP945 (F H82B S) (scFv)
scFv: MEVQLQESGPSLVKPSQTLSLTCSVTGDSITSGYWNWIRKFPGNKLEYMGYISDSGITYYNPSLKSRISITRDTSKNQYYLQLNSVTAEDTATYNCARRTLATYYAMDYWGQGTSVTVSSGSTSGSGKPGSGEGSTKGDFVMTQTPLSLPVSLGDQASISCRASQSLVHSNGNTYLHWYLQKPGQSPKLLIYRVSNRFSGVPDRFSGSGSGTDFTLKISRVEAEDLGVYFCSQSTHVPPTFGGGTKLEIKRTPVSEKQLAEVVANTITPLMKAQSVPGMAVAVIYQGKPHYYTFGKADIAANKPVTPQTLFELGSISKTFTGVLGGDAIARGEISLDDAVTRYWPQLTGKQWQGIRMLDLATYTAGGLPLQVPDEVTDNASLLRFYQNWQPQWKPGTTRLYANASIGLFGALAVKPSGMPYEQAMTTRVLKPLKLDHTWINVPKAEEAHYAWGYRDGKAVRVSPGMLDAQAYGVKTNVQDMANWVMANMAPENVADASLKQGIALAQSRYWRIGSMYQGLGWEMLNWPVEANTVVETSFGNVALAPLPVAEVNPPAPPVKASWVHKTGSTGGFGSYVAFIPEKQIGIVMLANTSYPNPARVEAAYHILEALQ
- binding result [2]: binds

B8: L49-sFv-bL mutant FP950 (N H91 Y) (scFv)
scFv: MEVQLQESGPSLVKPSQTLSLTCSVTGDSITSGYWNWIRKFPGNKLEYMGYISDSGITYYNPSLKSRISITRDTSKNQYYLQLNFVTAEDTATYYCARRTLATYYAMDYWGQGTSVTVSSGSTSGSGKPGSGEGSTKGDFVMTQTPLSLPVSLGDQASISCRASQSLVHSNGNTYLHWYLQKPGQSPKLLIYRVSNRFSGVPDRFSGSGSGTDFTLKISRVEAEDLGVYFCSQSTHVPPTFGGGTKLEIKRTPVSEKQLAEVVANTITPLMKAQSVPGMAVAVIYQGKPHYYTFGKADIAANKPVTPQTLFELGSISKTFTGVLGGDAIARGEISLDDAVTRYWPQLTGKQWQGIRMLDLATYTAGGLPLQVPDEVTDNASLLRFYQNWQPQWKPGTTRLYANASIGLFGALAVKPSGMPYEQAMTTRVLKPLKLDHTWINVPKAEEAHYAWGYRDGKAVRVSPGMLDAQAYGVKTNVQDMANWVMANMAPENVADASLKQGIALAQSRYWRIGSMYQGLGWEMLNWPVEANTVVETSFGNVALAPLPVAEVNPPAPPVKASWVHKTGSTGGFGSYVAFIPEKQIGIVMLANTSYPNPARVEAAYHILEALQ
- binding result [2]: binds
